Assay results from patent US20220002357A1.

Tests used:
[1] = target: µ-opioid receptor (MOR) fused to Gαi1 protein (MOR-Gi1) (human) (UniProt P63096); assay: ADSoRB radiotracer elution from microsomal membranes with GPPNHP, scintillation counting (FIG. 2B)
[2] = target: µ-opioid receptor (MOR) fused to Gαi1 protein (MOR-Gi1) (human) (UniProt P63096); assay: ADSoRB radiotracer elution from microsomal membranes with buffer control, scintillation counting (FIG. 2B)
[3] = target: mu-opioid receptor fused to Gαi1-RLuc8 chimera (MOR-Gi1RLuc) (human) (UniProt P63096); assay: ADSoRB radiotracer adsorption to microsomal membranes, scintillation counting
mu-opioid receptor fused to Gαi1-RLuc8 chimera (MOR-Gi1RLuc) (human), sequence (P63096 whole entry, change not shown, the tested form may be a part): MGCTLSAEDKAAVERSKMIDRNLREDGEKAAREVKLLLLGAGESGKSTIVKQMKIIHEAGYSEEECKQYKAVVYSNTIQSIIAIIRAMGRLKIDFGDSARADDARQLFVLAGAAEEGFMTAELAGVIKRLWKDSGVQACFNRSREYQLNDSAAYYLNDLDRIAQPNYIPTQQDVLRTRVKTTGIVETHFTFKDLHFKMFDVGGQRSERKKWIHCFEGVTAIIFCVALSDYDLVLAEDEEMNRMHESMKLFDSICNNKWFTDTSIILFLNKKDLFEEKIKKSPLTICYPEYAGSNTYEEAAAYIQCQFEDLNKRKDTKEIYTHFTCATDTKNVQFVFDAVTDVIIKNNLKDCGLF

[4] = target: mu-opioid receptor unfused (MOR); assay: as above
[5] = target: mu-opioid receptor fused to Gαi1-RLuc8 chimera (MOR-Gi1RLuc) (human) (UniProt P63096); assay: ADSoRB radiotracer elution from microsomal membranes with GPPNHP, scintillation counting
[6] = target: mu-opioid receptor unfused (MOR); assay: as above
neurotensin receptor = assay: cell-based or functional assay

µ-opioid receptor (MOR) fused to Gαi1 protein (MOR-Gi1) (human), sequence (P63096 whole entry, the tested form may be a part): as the sequence (P63096 whole entry, change not shown, the tested form may be a part) above

Substance	elution upon complex dissociation/uncoupling with GPPNHP (% of total agonist added) (% of total agonist added) [1]	elution with buffer control (% of total agonist added) (% of total agonist added) [2]	unbound tracer (%) (% unbound tracer) [3]	unbound tracer (%) (% unbound tracer) [4]	fraction of agonist eluted upon GPPNHP treatment (% of total agonist) (% of total agonist) [5]	fraction of agonist eluted upon GPPNHP treatment (% of total agonist) (% of total agonist) [6]	NET BRET response at GαZ, 96-well plate (neurotensin receptor)	NET BRET response at GαZ, 384-well plate (neurotensin receptor)	Neurotensin potency, GαZ-114-Rluc8/Gβ3γ1-GFP2 BRET biosensor, 96-well plate (neurotensin receptor)	Neurotensin potency, GαZ-114-Rluc8/Gβ3γ1-GFP2 BRET biosensor, 384-well plate (neurotensin receptor)
[3H]DAMGO (peptide)	30	2	23	67	7	0.8	–	–	–	–
neurotensin peptide (8-13) (from UniProt P30990 31-36)	–	–	–	–	–	–	0.495	0.625	1.85 nM	1.68 nM
